Legend:
[1] = target: T1, human CEACAM5 on MKN-45 cells (human, UniProt P06731 35-685); assay: FACS binding to MKN-45 cells, which express CD47, CEACAM5 and CEACAM6
T1 construct: Endogenous CEACAM5 on MKN-45 gastric adenocarcinoma cells, which also carry CD47 (and CEACAM6); also called CD66e; MKN45 CEA+ cancer cells
T1 sequence: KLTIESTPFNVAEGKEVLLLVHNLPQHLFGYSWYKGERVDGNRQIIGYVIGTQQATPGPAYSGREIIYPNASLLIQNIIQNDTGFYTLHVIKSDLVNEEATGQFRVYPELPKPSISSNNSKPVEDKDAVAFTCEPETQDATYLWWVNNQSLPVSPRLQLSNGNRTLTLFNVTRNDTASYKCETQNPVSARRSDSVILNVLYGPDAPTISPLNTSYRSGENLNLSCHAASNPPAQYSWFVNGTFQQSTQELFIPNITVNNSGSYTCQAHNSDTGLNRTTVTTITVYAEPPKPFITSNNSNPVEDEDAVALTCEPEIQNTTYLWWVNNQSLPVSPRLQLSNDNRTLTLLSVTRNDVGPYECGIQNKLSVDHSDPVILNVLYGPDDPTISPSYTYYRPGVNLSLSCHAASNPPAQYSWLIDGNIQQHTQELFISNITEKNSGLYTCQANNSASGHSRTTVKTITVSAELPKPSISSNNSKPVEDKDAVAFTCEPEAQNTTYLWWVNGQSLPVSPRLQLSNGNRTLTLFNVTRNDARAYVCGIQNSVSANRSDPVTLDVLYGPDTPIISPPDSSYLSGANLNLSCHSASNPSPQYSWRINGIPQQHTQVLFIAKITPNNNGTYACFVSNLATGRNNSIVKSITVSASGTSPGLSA

[2] = target: T2, human CD47 on MKN45 cells (human, UniProt Q08722 19-323); assay: inhibition of SIRPα-mouseFc binding to CD47 on MKN45 cells, imaging (CX5)
T2 construct: whole, on cells; also called IAP
Source text: The detection of bound SIRPα cell-based assay monitoring the interaction of soluble SIRPα with human CD47 expressed at the surface of MKN45 is used for the detection of the blocking activity. Dose-response experiments with bispecific antibodies according to the invention allow determination of an IC50 value.
MKN45 cancer cells, expressing both CD47 and CEACAM5, are stained with CFSE violet to allow the imaging system (CX5) to detect the cells. Briefly, 3,000 stained MKN45 cells per well are seeded in a 384 optical well plate (Costar) and incubated for 50 minutes with increased concentrations of bispecific antibodies of the invention (1.9 pM to 333 nM, in quadruplicates). Then, a fixe concentration of SIRPα-mouseFc premixed with anti-mouse IgG-Fc AF647 coupled antibody (Jackson Immunoresearch diluted 1:2000) is added at 50 ng/mL final. After an incubation of 3H30 plates are acquired with the imaging system (CX5, Thermofisher) and fluorescence signals emitted by the detected bound SIRPα is recorded by the software dedicated to the imaging system. Fluorescence signals are plotted according to the dose range tested and IC50 are calculated by the software (Prism, Graphpad).

[3] = target: T1, human CEACAM5 on MKN-45 cells; assay: flow cytometry on MKN45 CEA+ cells (carry CEACAM5 and CD47)
human CEACAM6 = target: T3, human CEACAM6 (human, UniProt P40199 35-320); assay: statement in the legend of FIG. 21A (FACS on MKN-45 cells)
T3 construct: also called CD66c; biotinylated recombinant human CEACAM6
T3 sequence (looked up): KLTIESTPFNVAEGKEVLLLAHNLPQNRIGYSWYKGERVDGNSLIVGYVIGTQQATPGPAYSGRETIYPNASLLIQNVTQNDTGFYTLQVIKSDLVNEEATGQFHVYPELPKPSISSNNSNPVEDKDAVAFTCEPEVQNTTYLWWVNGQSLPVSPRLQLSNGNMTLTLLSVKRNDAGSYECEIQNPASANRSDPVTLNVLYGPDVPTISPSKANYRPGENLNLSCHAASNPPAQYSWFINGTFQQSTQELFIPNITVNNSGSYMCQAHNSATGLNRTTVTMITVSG

[4] = target: T1, human CEACAM5 on MKN-45 cells; assay: binding to MKN-45 cells (MFI), in the presence of 200 ng/mL shed CEA
[5] = target: T1, human CEACAM5 on MKN-45 cells; assay: binding to MKN-45 cells (MFI), without shed CEA
shed CEA (soluble CEA) = target: T4, shed CEA (soluble CEA) (human, UniProt P06731 35-685, limits assumed); assay: cell-based or functional assay
T4 sequence (looked up): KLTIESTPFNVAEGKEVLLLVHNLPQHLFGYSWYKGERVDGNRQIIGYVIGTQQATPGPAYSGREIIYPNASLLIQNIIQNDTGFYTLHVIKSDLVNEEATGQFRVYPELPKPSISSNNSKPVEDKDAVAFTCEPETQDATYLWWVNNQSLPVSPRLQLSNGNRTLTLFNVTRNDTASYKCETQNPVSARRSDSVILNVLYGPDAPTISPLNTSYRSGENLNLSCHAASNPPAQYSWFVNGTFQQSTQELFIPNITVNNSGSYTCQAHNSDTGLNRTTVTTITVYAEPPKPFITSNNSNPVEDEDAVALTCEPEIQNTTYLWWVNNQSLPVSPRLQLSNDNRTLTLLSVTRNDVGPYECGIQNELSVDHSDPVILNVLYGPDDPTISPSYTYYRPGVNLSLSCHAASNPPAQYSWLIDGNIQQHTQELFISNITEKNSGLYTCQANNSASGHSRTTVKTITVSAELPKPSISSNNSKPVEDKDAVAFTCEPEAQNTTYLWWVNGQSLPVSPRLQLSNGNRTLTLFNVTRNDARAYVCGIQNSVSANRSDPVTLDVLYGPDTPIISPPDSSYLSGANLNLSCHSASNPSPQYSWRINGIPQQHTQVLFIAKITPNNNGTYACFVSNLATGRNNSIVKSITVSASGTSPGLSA

EC50 (read off the curve) [1]: ~1 µg/mL
IC50 [2]: 0.37 nM
EC50 [3]: 16.5 nM
binding result (human CEACAM6): no binding
EC50 (read off the curve) [4]: ~0.5 µg/mL
EC50 (read off the curve) [5]: ~0.5 µg/mL
shift of EC50 of the phagocytosis index curve of MKN-45 cells by 200 ng/mL shed CEA (shed CEA (soluble CEA)): < 4 fold
B1: K2AC22 CEA×CD47 bispecific antibody (bispecific antibody, human IgG1, kappa, lambda)
heavy: not shown
light 1: QSVLTQPPSVSAAPGQKVTISCSGSSSNIANGIVSWYQQLPGTAPKLLIYFDNLRPSGIPDRFSGSKSGTSATLGITGLQTGDEADYYCGTWDFSYGIVFGGGTKLTVLGQPKAAPSVTLFPPSSEELQANKATLVCLISDFYPGAVTVAWKADSSPVKAGVETTTPSKQSNNKYAASSYLSLTPEQWKSHRSYSCQVTHEGSTVEKTVAPTECS
light 2: not shown
notes: κλ body, human IgG1, common heavy chain; CEACAM5 arm light chain 1G6 (AC22)

From patent US20200123252A1 (LAMKAP BIO BETA, published 2020)
